Experimental data reported in PMC4439613, “TRIP13 is a protein-remodeling AAA+ ATPase that catalyzes MAD2 conformation switching” (eLife, 2015).

T1: His6-tagged M. musculus p31(comet) (M. musculus, UniProt Q9DCX1 1-276)
T1 construct: p31(comet), M. musculus, full length; The same construct as m12 with the TEV-cleavable His6 tag left on for the Ni2+ pull-down; also called His6-tagged p31(comet); source: E. coli Rosetta 2 (DE3) pLysS, purified; not shown: His6, N-terminal, kept
T1 sequence (looked up): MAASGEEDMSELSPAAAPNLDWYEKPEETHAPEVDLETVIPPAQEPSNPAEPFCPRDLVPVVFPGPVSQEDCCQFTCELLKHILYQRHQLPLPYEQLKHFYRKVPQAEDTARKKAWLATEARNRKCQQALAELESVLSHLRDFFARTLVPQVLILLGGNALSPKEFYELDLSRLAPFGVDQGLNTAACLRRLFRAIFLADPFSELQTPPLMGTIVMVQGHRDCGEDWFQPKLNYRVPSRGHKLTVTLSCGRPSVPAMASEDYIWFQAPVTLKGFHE

T2: M. musculus p31(comet) (wild type, tag cleaved) (M. musculus, UniProt Q9DCX1 1-276)
T2 construct: p31(comet), M. musculus, full length; also called wild-type p31(comet); source: E. coli Rosetta 2 (DE3) pLysS, purified (Ni-NTA, Hitrap Q ion exchange, Superdex 200 SEC); not shown: His6, N-terminal, cleaved
T2 sequence (looked up): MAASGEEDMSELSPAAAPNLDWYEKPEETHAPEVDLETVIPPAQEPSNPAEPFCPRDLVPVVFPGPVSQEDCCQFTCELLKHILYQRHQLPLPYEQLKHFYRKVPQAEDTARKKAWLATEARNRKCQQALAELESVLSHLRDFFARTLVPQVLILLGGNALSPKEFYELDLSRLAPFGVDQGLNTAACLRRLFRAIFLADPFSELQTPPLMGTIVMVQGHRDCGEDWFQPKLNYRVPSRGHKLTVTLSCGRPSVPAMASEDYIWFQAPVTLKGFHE


Key:
[1] = molecular target: C. elegans MAD-2 (MDF-2) (C. elegans); assay: SEC-MALS; single purified proteins on Superdex 200 10/300 GL; PCH-2 and TRIP13 with and without added nucleotides
[2] = substrate: Nc1ncnc2c1ncn2[C@@H]1O[C@H](COP(=O)(O)OP(=O)(O)OP(=O)(O)O)[C@@H](O)[C@H]1O; assay: enzyme-coupled ATPase assay (pyruvate kinase / lactate dehydrogenase, NADH); assay type: biochemical, Mus musculus; conditions: basal, pH 8.5, 27 °C, 10 mM MgCl2, 200 mM NaCl, kcat per hexamer
[3] = molecular target: the molecule itself; assay: SEC-MALS; single purified proteins on Superdex 200 10/300 GL; PCH-2 and TRIP13 with and without added nucleotides
[4] = substrate: Nc1ncnc2c1ncn2[C@@H]1O[C@H](COP(=O)(O)OP(=O)(O)OP(=O)(O)O)[C@@H](O)[C@H]1O; assay: enzyme-coupled ATPase assay (pyruvate kinase / lactate dehydrogenase, NADH); assay type: biochemical, Caenorhabditis elegans; conditions: basal, pH 8.5, 27 °C, 10 mM MgCl2, 200 mM NaCl, kcat per hexamer
[5] = substrate: Nc1ncnc2c1ncn2[C@@H]1O[C@H](COP(=O)(O)OP(=O)(O)OP(=O)(O)O)[C@@H](O)[C@H]1O; assay: as above; assay type: biochemical, Caenorhabditis elegans; conditions: basal, pH 8.5, 27 °C, 10 mM MgCl2, 200 mM NaCl, kcat per hexamer; remark: listed apart in the source
Excerpt: enzyme-coupled ATPase assay (pyruvate kinase / lactate dehydrogenase, NADH) on PCH-2 | the kcat of PCH-2^W221A around threefold higher than that of the wild-type enzyme

[6] = molecular target: the molecule itself; assay: SEC; PCH-2 pore loop mutants compared with wild type on a size-exclusion column
[7] = molecular target: T1, His6-tagged M. musculus p31(comet); assay: pull-down; Ni2+ pull-down: 300 pmol His6-tagged p31(comet) with 450 pmol untagged MAD2 in 50 μl (20 mM Tris-HCl pH 7.5 or 8.5, 200 mM NaCl, 20 mM imidazole, 0.1% NP-40), 20°C, Ni-NTA magnetic beads, Coomassie; conditions: both partners purified
[8] = molecular target: T2, M. musculus p31(comet) (wild type, tag …); assay: SEC; as a8 but mixtures of two of the three proteins (one left out); conditions: both partners purified

Molecule	stoichiometry N [3]	Km [4] [µM]	kcat [4]	stoichiometry N [6]	further results
C. elegans MAD-2 (MDF-2) (natural protein)	–	–	–	–	stoichiometry N [1]: 2
Mus musculus TRIP13 (enzyme, M. musculus, UniProt Q3UA06 1-432, looked up, TRIP13, M. musculus, full length; Mixture of oligomeric states from monomer to hexamer by SEC-MALS; also called wild-type TRIP13; source: E. coli Rosetta 2 (DE3) pLysS, purified (Ni-NTA, Hitrap Q ion exchange, Superdex 200 SEC); not shown: His6, N-terminal, cleaved) MDEAVGDLKQALPCVAESPAVHVEVLQRSGSTAKKEDIKSSVYRLLNRHNIVFGDYVWTEFDDPFLSRNVQSVSIVDTELKAKDPQPIDLSACTIALHIFQLNEEGPSSENLDEETENIIAASHWVLPAAEFHGLWDSLVYDVEVKSHLLDYVMTTVLFSDKNVDSNLITWNRVVLLHGPPGTGKTSLCKALAQKLTIRLSSRYRYGQLIEINSHSLFSKWFSESGKLVTKMFQKIQDLIDDKEALVFVLIDEVESLTAARNACRAGAEPSDAIRVVNAVLTQIDQIKRHSNVVILTTSNITEKIDVAFVDRADIKQYIGPPSAAAIFKIYLSCLEELMKCQIIYPRQQLLTLRELEMIGFIENNVSKLSLLLSEISRKSEGLSGRVLRKLPFLAHALYIQAPSVTIEGFLQALSLAVDKQFEEKKKLSAYV	≤ 6	–	–	–	Km [2]: 13.9 ± 0.6 µM; kcat [2]: 8.7 +/- 0.1 ATP min^-1
M. musculus TRIP13^E253Q (enzyme, UniProt Q3UA06 1-432, looked up, TRIP13, M. musculus, full length, Walker B mutation E253Q; also called Walker B mutant; ATP hydrolysis-defective TRIP13; source: E. coli Rosetta 2 (DE3) pLysS, purified (Ni-NTA, Hitrap Q ion exchange, Superdex 200 SEC); not shown: His6, N-terminal, cleaved) MDEAVGDLKQALPCVAESPAVHVEVLQRSGSTAKKEDIKSSVYRLLNRHNIVFGDYVWTEFDDPFLSRNVQSVSIVDTELKAKDPQPIDLSACTIALHIFQLNEEGPSSENLDEETENIIAASHWVLPAAEFHGLWDSLVYDVEVKSHLLDYVMTTVLFSDKNVDSNLITWNRVVLLHGPPGTGKTSLCKALAQKLTIRLSSRYRYGQLIEINSHSLFSKWFSESGKLVTKMFQKIQDLIDDKEALVFVLIDQVESLTAARNACRAGAEPSDAIRVVNAVLTQIDQIKRHSNVVILTTSNITEKIDVAFVDRADIKQYIGPPSAAAIFKIYLSCLEELMKCQIIYPRQQLLTLRELEMIGFIENNVSKLSLLLSEISRKSEGLSGRVLRKLPFLAHALYIQAPSVTIEGFLQALSLAVDKQFEEKKKLSAYV	6	–	–	–	–
TRIP13 (Mus musculus; W221A) (protein, full-length, N-terminal His6 tag removed with TEV protease, E. coli Rosetta 2 (DE3) pLysS) MDEAVGDLKQALPCVAESPAVHVEVLQRSGSTAKKEDIKSSVYRLLNRHNIVFGDYVWTEFDDPFLSRNVQSVSIVDTELKAKDPQPIDLSACTIALHIFQLNEEGPSSENLDEETENIIAASHWVLPAAEFHGLWDSLVYDVEVKSHLLDYVMTTVLFSDKNVDSNLITWNRVVLLHGPPGTGKTSLCKALAQKLTIRLSSRYRYGQLIEINSHSLFSKAFSESGKLVTKMFQKIQDLIDDKEALVFVLIDEVESLTAARNACRAGAEPSDAIRVVNAVLTQIDQIKRHSNVVILTTSNITEKIDVAFVDRADIKQYIGPPSAAAIFKIYLSCLEELMKCQIIYPRQQLLTLRELEMIGFIENNVSKLSLLLSEISRKSEGLSGRVLRKLPFLAHALYIQAPSVTIEGFLQALSLAVDKQFEEKKKLSAYV	–	–	–	–	Km [2]: 24.4 ± 1.3 µM; kcat [2]: 18.7 +/- 0.2 ATP min^-1
Caenorhabditis elegans PCH-2 (enzyme, C. elegans, UniProt Q09535 1-424, looked up, PCH-2 (TRIP13 ortholog), C. elegans, full length, 424 residues; Selenomethionine-derivatised protein was used for phasing only; two subunits of the hexamer carry ADP in the crystal; also called C. elegans TRIP13 ortholog; wild-type PCH-2; source: E. coli Rosetta 2 (DE3) pLysS, purified (Ni-NTA, Hitrap Q ion exchange, Superdex 200 SEC); not shown: His6, N-terminal, cleaved) MHEPMKTLKNIHAEIRICQKFPKSTVQKRFSEFEELIKAASKNARNWKPISSVELFQGDSSLNELFEKLVIGTCELRDGELFENVNDLTINPSNIHVYKLHKDGPLSQNIGDDDGDESIIGSQLWQLPCVEFDSIWENLIYDSNLKNEVMSYVAALARLSEKHVNTKIINVNRLILLTGPPGTGKTSLCKGLAQHLSIRMNDKYSKSVMLEINSHSLFSKWFSESGKLVQKMFDQIDELAEDEKCMVFVLIDEVESLGMCRESSSSRSEPSDAIRAVNALLTQIDRIRRRDNVLILCTSNLESTLDKALVDRADIVKNVGQPSDFARYSMLKSSIMELARIGVVIDNEVHTDYWPQDICDTKAPRNEFTEILFKIAQEARGLSGRAISMLPTLVYSKSPEETITLPNCMNLFLEAVKERLSRNN	6	9.5 ± 1.3	56.0 +/- 1.5 ATP min^-1	–	–
C. elegans PCH-2^W221A (enzyme, UniProt Q09535 1-424, looked up, PCH-2, C. elegans, full length, pore loop mutation W221A; also called pore loop mutant W221A; source: E. coli Rosetta 2 (DE3) pLysS, purified (Ni-NTA, Hitrap Q ion exchange, Superdex 200 SEC); not shown: His6, N-terminal, cleaved) MHEPMKTLKNIHAEIRICQKFPKSTVQKRFSEFEELIKAASKNARNWKPISSVELFQGDSSLNELFEKLVIGTCELRDGELFENVNDLTINPSNIHVYKLHKDGPLSQNIGDDDGDESIIGSQLWQLPCVEFDSIWENLIYDSNLKNEVMSYVAALARLSEKHVNTKIINVNRLILLTGPPGTGKTSLCKGLAQHLSIRMNDKYSKSVMLEINSHSLFSKAFSESGKLVQKMFDQIDELAEDEKCMVFVLIDEVESLGMCRESSSSRSEPSDAIRAVNALLTQIDRIRRRDNVLILCTSNLESTLDKALVDRADIVKNVGQPSDFARYSMLKSSIMELARIGVVIDNEVHTDYWPQDICDTKAPRNEFTEILFKIAQEARGLSGRAISMLPTLVYSKSPEETITLPNCMNLFLEAVKERLSRNN	–	–	–	6	Km [5]: 28.3 ± 1.9 µM; kcat [5]: 168.7 +/- 2.3 ATP min^-1
C. elegans PCH-2 'pore loop AG' mutant (enzyme, UniProt Q09535 1-424, looked up, also called PCH-2^AG; source: E. coli Rosetta 2 (DE3) pLysS, purified (Ni-NTA, Hitrap Q ion exchange, Superdex 200 SEC); not shown: His6, N-terminal, cleaved) MHEPMKTLKNIHAEIRICQKFPKSTVQKRFSEFEELIKAASKNARNWKPISSVELFQGDSSLNELFEKLVIGTCELRDGELFENVNDLTINPSNIHVYKLHKDGPLSQNIGDDDGDESIIGSQLWQLPCVEFDSIWENLIYDSNLKNEVMSYVAALARLSEKHVNTKIINVNRLILLTGPPGTGKTSLCKGLAQHLSIRMNDKYSKSVMLEINSHSLAGAAGAAAGALVQKMFDQIDELAEDEKCMVFVLIDEVESLGMCRESSSSRSEPSDAIRAVNALLTQIDRIRRRDNVLILCTSNLESTLDKALVDRADIVKNVGQPSDFARYSMLKSSIMELARIGVVIDNEVHTDYWPQDICDTKAPRNEFTEILFKIAQEARGLSGRAISMLPTLVYSKSPEETITLPNCMNLFLEAVKERLSRNN	–	20.2 ± 1.6	85.4 +/- 1.2 ATP min^-1	6	–
C. elegans PCH-2^F222A (enzyme, UniProt Q09535 1-424, looked up, PCH-2, C. elegans, full length, pore loop mutation F222A; also called pore loop mutant F222A; source: E. coli Rosetta 2 (DE3) pLysS, purified (Ni-NTA, Hitrap Q ion exchange, Superdex 200 SEC); not shown: His6, N-terminal, cleaved) MHEPMKTLKNIHAEIRICQKFPKSTVQKRFSEFEELIKAASKNARNWKPISSVELFQGDSSLNELFEKLVIGTCELRDGELFENVNDLTINPSNIHVYKLHKDGPLSQNIGDDDGDESIIGSQLWQLPCVEFDSIWENLIYDSNLKNEVMSYVAALARLSEKHVNTKIINVNRLILLTGPPGTGKTSLCKGLAQHLSIRMNDKYSKSVMLEINSHSLFSKWASESGKLVQKMFDQIDELAEDEKCMVFVLIDEVESLGMCRESSSSRSEPSDAIRAVNALLTQIDRIRRRDNVLILCTSNLESTLDKALVDRADIVKNVGQPSDFARYSMLKSSIMELARIGVVIDNEVHTDYWPQDICDTKAPRNEFTEILFKIAQEARGLSGRAISMLPTLVYSKSPEETITLPNCMNLFLEAVKERLSRNN	–	19.3 ± 0.8	11.7 +/- 0.1 ATP min^-1	6	–
M. musculus MAD2 (wild type) (natural protein, UniProt Q9Z1B5 1-205, looked up, MAD2, M. musculus, full length; Predominantly dimeric by SEC-MALS; also called WT MAD2; wild-type MAD2 dimer; source: E. coli Rosetta 2 (DE3) pLysS, purified (Ni-NTA, Hitrap Q ion exchange, Superdex 200 SEC); not shown: His6, N-terminal, cleaved) MAQQLAREQGITLRGSAEIVAEFFSFGINSILYQRGIYPSETFTRVQKYGLTLLTTTDPELIKYLNNVVEQLKEWLYKCSVQKLVVVISNIESGEVLERWQFDIECDKTAKEEGVRREKSQKAIQDEIRSVIRQITATVTFLPLLEVSCSFDLLIYTDKDLVVPEKWEESGPQFITNCEEVRLRSFTTTIHKVNSMVAYKTPVND	2	–	–	–	binding result [7]: binds
M. musculus C-MAD2^R133A (closed conformer of the monomeric MAD2 R133A variant) (natural protein, UniProt Q9Z1B5 1-205, looked up, MAD2, M. musculus, full length, dimerization-defective mutation R133A; the closed conformer, purified apart from the open one by anion exchange; also called closed MAD2; source: E. coli Rosetta 2 (DE3) pLysS, purified; closed conformer peak separated by anion exchange; not shown: His6, N-terminal, cleaved) MAQQLAREQGITLRGSAEIVAEFFSFGINSILYQRGIYPSETFTRVQKYGLTLLTTTDPELIKYLNNVVEQLKEWLYKCSVQKLVVVISNIESGEVLERWQFDIECDKTAKEEGVRREKSQKAIQDEIRSVIAQITATVTFLPLLEVSCSFDLLIYTDKDLVVPEKWEESGPQFITNCEEVRLRSFTTTIHKVNSMVAYKTPVND	–	–	–	–	binding result [8]: binds
